Results as given in patent publication US20020142429.

Tests used:
[1] = molecular target: calmodulin
[2] = molecular target: rabbit reticulocyte eEF-2, P55823
[3] = molecular target: Dictyostelium myosin (myosin heavy chains), P08799
Sequence of Dictyostelium myosin (myosin heavy chains), P08799 (P08799 whole entry): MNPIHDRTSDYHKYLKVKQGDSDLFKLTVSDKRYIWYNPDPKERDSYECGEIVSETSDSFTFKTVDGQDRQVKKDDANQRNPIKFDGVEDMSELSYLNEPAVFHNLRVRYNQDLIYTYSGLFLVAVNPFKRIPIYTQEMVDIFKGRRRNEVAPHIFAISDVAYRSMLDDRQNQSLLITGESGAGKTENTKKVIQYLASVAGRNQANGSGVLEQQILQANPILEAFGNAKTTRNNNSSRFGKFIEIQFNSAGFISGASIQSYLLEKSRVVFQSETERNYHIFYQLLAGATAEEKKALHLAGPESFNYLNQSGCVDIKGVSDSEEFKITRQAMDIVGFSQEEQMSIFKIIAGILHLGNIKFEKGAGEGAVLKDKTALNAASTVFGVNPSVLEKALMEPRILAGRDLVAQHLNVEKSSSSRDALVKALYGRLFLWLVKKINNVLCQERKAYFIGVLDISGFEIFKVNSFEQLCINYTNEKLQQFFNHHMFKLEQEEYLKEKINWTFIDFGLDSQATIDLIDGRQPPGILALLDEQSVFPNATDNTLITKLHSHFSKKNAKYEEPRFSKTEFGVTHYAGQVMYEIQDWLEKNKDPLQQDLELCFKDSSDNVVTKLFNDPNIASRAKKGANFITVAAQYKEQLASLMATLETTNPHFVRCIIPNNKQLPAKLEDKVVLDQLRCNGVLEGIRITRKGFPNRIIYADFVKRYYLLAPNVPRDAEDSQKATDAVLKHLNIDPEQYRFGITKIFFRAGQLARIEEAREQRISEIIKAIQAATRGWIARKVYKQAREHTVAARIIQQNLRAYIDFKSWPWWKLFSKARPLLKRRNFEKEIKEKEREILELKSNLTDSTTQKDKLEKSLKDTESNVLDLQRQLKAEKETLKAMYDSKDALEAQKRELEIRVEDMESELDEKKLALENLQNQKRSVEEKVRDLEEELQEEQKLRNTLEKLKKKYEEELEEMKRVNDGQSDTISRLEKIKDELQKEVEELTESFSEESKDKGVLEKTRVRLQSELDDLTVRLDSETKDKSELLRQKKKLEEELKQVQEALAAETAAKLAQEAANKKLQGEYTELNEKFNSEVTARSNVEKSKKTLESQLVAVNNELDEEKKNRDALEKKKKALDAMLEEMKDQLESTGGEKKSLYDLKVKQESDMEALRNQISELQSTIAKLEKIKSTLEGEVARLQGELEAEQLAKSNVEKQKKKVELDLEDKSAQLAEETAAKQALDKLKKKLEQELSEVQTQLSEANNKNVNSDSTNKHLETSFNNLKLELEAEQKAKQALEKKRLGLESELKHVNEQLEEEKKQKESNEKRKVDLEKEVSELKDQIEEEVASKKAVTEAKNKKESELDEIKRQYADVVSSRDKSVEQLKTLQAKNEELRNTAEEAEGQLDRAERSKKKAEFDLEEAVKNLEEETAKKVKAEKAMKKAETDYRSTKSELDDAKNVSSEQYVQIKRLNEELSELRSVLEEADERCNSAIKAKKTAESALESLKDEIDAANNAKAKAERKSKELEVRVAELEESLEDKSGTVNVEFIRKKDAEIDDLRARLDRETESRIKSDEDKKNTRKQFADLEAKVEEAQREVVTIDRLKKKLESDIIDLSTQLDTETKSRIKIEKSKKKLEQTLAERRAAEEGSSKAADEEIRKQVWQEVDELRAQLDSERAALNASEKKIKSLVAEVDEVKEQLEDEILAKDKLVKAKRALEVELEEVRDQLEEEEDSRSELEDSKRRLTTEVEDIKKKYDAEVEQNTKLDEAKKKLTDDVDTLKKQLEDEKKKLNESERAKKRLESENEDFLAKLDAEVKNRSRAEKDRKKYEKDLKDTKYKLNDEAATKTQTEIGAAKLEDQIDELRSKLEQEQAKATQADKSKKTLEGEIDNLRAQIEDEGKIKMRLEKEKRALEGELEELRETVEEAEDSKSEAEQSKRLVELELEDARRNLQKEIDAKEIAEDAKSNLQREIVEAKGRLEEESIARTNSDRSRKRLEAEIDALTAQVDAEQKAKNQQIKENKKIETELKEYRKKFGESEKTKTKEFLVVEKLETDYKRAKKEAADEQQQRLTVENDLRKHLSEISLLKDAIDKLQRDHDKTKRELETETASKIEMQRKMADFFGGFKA

B1: human eEF-2 kinase glutathione S-transferase fusion protein (protein)
chain: MADEDLIFRLEGVDGGQSPRAGHDGDSDGDSDDEEGYFICPITDDPSSNQNVNSKVNKYYSNLTKSERYSSSGSPANSFHFKEAWKHAIQKAKHMPDPWAEFHLEDIATERATRHRYNAVTGEWLDDEVLIKMASQPFGRGAMRECFRTKKLSNFLHAQQWKGASNYVAKRYIEPVDRDVYFEDVRLQMEAKLWGEEYNRHKPPKQVDIMQMCIIELKDRPGKPLFHLEHYIEGKYIKYNSNSGFVRDDNIRLTPQAFSHFTFERSGHQLIVVDIQGVGDLYTDPQIHTETGTDFGDGNLGVRGMALFFYSHACNRICESMGLAPFDLSPRERDAVNQNTKLLQSAKTILRGTEEKCGSPQVRTLSGSRPPLLRPLSENSGDENMSDVTFDSLPSSPSSATPHSQKLDHLHWPVFSDLDNMASRDHDHLDNHRESENSGDSGYPSEKRGELDDPEPREHGHSYSNRKYESDEDSLGSSGRVCVEKWNLLNSSRLHLPRASAVALEVQRLNALDLEKKIGKSILGKVHLAMVRYHEGGRFCEKGEEWDQESAVFHLEHAANLGELEAIVGLGLMYSQLPHHILADVSLKETEENKTKGFDYLLKAAEAGDRQSMILVARAFDSGQNLSPDRCQDWLEALHWYNTALEMTDCDEGGEYDGMQDEPRYMMLAREAEMLFTGGYGLEKDPQRSGDLYTQAAEAAMEAMKGRLANQYYQKAEEAWAQMEE
For B1, the “phosphorylation of eEF-2 and autophosphorylation, dependence on calmodulin” value [1] was “the ability of the recombinant enzyme to phosphorylate eEF-2 and to undergo autophosphorylation are strictly calmodulin-dependent (data not shown)”, the “ability to phosphorylate eEF-2” value [2] was “All of the fusion eEF-2 kinase preparations were able to efficiently phosphorylate eEF-2 (data not shown)” and the “phosphorylation of eEF-2” value [2] was “the ability of the recombinant enzyme to phosphorylate eEF-2 and to undergo autophosphorylation are strictly calmodulin-dependent (data not shown)”.

B2: human eEF-2 kinase thioredoxin fusion protein (protein)
chain: MADEDLIFRLEGVDGGQSPRAGHDGDSDGDSDDEEGYFICPITDDPSSNQNVNSKVNKYYSNLTKSERYSSSGSPANSFHFKEAWKHAIQKAKHMPDPWAEFHLEDIATERATRHRYNAVTGEWLDDEVLIKMASQPFGRGAMRECFRTKKLSNFLHAQQWKGASNYVAKRYIEPVDRDVYFEDVRLQMEAKLWGEEYNRHKPPKQVDIMQMCIIELKDRPGKPLFHLEHYIEGKYIKYNSNSGFVRDDNIRLTPQAFSHFTFERSGHQLIVVDIQGVGDLYTDPQIHTETGTDFGDGNLGVRGMALFFYSHACNRICESMGLAPFDLSPRERDAVNQNTKLLQSAKTILRGTEEKCGSPQVRTLSGSRPPLLRPLSENSGDENMSDVTFDSLPSSPSSATPHSQKLDHLHWPVFSDLDNMASRDHDHLDNHRESENSGDSGYPSEKRGELDDPEPREHGHSYSNRKYESDEDSLGSSGRVCVEKWNLLNSSRLHLPRASAVALEVQRLNALDLEKKIGKSILGKVHLAMVRYHEGGRFCEKGEEWDQESAVFHLEHAANLGELEAIVGLGLMYSQLPHHILADVSLKETEENKTKGFDYLLKAAEAGDRQSMILVARAFDSGQNLSPDRCQDWLEALHWYNTALEMTDCDEGGEYDGMQDEPRYMMLAREAEMLFTGGYGLEKDPQRSGDLYTQAAEAAMEAMKGRLANQYYQKAEEAWAQMEE
With B2 the “ability to phosphorylate eEF-2” value [2] was “All of the fusion eEF-2 kinase preparations were able to efficiently phosphorylate eEF-2 (data not shown)”.

B3: recombinant human eEF-2 kinase (expressed in a coupled transcription/translation system) (protein)
chain: MADEDLIFRLEGVDGGQSPRAGHDGDSDGDSDDEEGYFICPITDDPSSNQNVNSKVNKYYSNLTKSERYSSSGSPANSFHFKEAWKHAIQKAKHMPDPWAEFHLEDIATERATRHRYNAVTGEWLDDEVLIKMASQPFGRGAMRECFRTKKLSNFLHAQQWKGASNYVAKRYIEPVDRDVYFEDVRLQMEAKLWGEEYNRHKPPKQVDIMQMCIIELKDRPGKPLFHLEHYIEGKYIKYNSNSGFVRDDNIRLTPQAFSHFTFERSGHQLIVVDIQGVGDLYTDPQIHTETGTDFGDGNLGVRGMALFFYSHACNRICESMGLAPFDLSPRERDAVNQNTKLLQSAKTILRGTEEKCGSPQVRTLSGSRPPLLRPLSENSGDENMSDVTFDSLPSSPSSATPHSQKLDHLHWPVFSDLDNMASRDHDHLDNHRESENSGDSGYPSEKRGELDDPEPREHGHSYSNRKYESDEDSLGSSGRVCVEKWNLLNSSRLHLPRASAVALEVQRLNALDLEKKIGKSILGKVHLAMVRYHEGGRFCEKGEEWDQESAVFHLEHAANLGELEAIVGLGLMYSQLPHHILADVSLKETEENKTKGFDYLLKAAEAGDRQSMILVARAFDSGQNLSPDRCQDWLEALHWYNTALEMTDCDEGGEYDGMQDEPRYMMLAREAEMLFTGGYGLEKDPQRSGDLYTQAAEAAMEAMKGRLANQYYQKAEEAWAQMEE
B3 was tested, and the “eEF-2 kinase activity in the presence and absence of Ca2+ and calmodulin” value [1] was “the recombinant human eEF-2 kinase activity was strictly Ca^2+/calmodulin-dependant”.

B4: human eEF-2 kinase 6xHis fusion protein (protein)
chain: MADEDLIFRLEGVDGGQSPRAGHDGDSDGDSDDEEGYFICPITDDPSSNQNVNSKVNKYYSNLTKSERYSSSGSPANSFHFKEAWKHAIQKAKHMPDPWAEFHLEDIATERATRHRYNAVTGEWLDDEVLIKMASQPFGRGAMRECFRTKKLSNFLHAQQWKGASNYVAKRYIEPVDRDVYFEDVRLQMEAKLWGEEYNRHKPPKQVDIMQMCIIELKDRPGKPLFHLEHYIEGKYIKYNSNSGFVRDDNIRLTPQAFSHFTFERSGHQLIVVDIQGVGDLYTDPQIHTETGTDFGDGNLGVRGMALFFYSHACNRICESMGLAPFDLSPRERDAVNQNTKLLQSAKTILRGTEEKCGSPQVRTLSGSRPPLLRPLSENSGDENMSDVTFDSLPSSPSSATPHSQKLDHLHWPVFSDLDNMASRDHDHLDNHRESENSGDSGYPSEKRGELDDPEPREHGHSYSNRKYESDEDSLGSSGRVCVEKWNLLNSSRLHLPRASAVALEVQRLNALDLEKKIGKSILGKVHLAMVRYHEGGRFCEKGEEWDQESAVFHLEHAANLGELEAIVGLGLMYSQLPHHILADVSLKETEENKTKGFDYLLKAAEAGDRQSMILVARAFDSGQNLSPDRCQDWLEALHWYNTALEMTDCDEGGEYDGMQDEPRYMMLAREAEMLFTGGYGLEKDPQRSGDLYTQAAEAAMEAMKGRLANQYYQKAEEAWAQMEE
B4 was tested, and the “ability to phosphorylate eEF-2” value [2] was “All of the fusion eEF-2 kinase preparations were able to efficiently phosphorylate eEF-2 (data not shown)”.

B5: myosin heavy chain kinase A (MHCK A) from Dictyostelium (protein)
chain: MFNIKKRKESITGIPPINVNSPQSVPLSGTLQSPLITPNSPNFVSRQCPFKKFGCSSFLVSKAEFDNHLKDDAQFHLQLAVEKFDHQFDLHTQLMAHFTEQMEDQLEKTMKVVRNHTDSLGGNVQTKLDEGIEKCMAFAKKVEQQQQQLAKRLITQQIQEKKSTSSPLVKGGISGGGGSGGDDSFDGANISSMSTSKQELQQELQSLSIKMKKELTELSDELSQKLERSTGNIDIKIKRIEGEVNEKIDKRQLVSTIDDSIGKKTDSIGYTLESSIIKKVEEKEKKKSEQNQLLFDSKIESLKDKIKIIETQQLDTSSEVRKLKLESTSSGNLMAGLNGTSGRPSSSSHFIPSSVSAAANNINKNEIMEEVKKVEEKLQKKIREEIDNTKSELSKVERSVKDNRSEIEGLEKDCKNQFDKQDNKIKQVEDDLKKSDSLLLLMQNNLKKYNEFVDRERDRESERLKLQDSIKRLEQNQKKIEAEIQEGNEQVERVLREEASISPISSVPKSPITTKRSSIILNSPPMTSQQSSPKIQDLLSSSGSSSVSGINISSETGEMGILWEFDPIINKWIRLSMKLKVERKPFAEGALREAYHTVSLGVGTDENYPLGTTTKLFPPIEMISPISKNNEAMTQLKNGTKFVLKLYKKEAEQQASRELYFEDVKMQMVCRDWGNKFNQKKPPKKIEFLMSWVVELIDRSPSSNGQPILCSIEPLLVGEFKKNNSNYGAVLTNRSTPQAFSHFTYELSNKQMIVVDIQGVDDLYTDPQIHTPDGKGFGLGNLGKAGINKFITTHKCNAVCALLDLDVKLGGVLSGNNKKQLQQGTMVMPDILPELMPSDNTIKVGAKQLPKAEFSKKDLKCVSTIQSFRERVNSIAFFDNQKLLCAGYGDGTYRVFDVNDNWKCLYTVNGHRKSIESIACNSNYIFTSSPDNTIKVHIIRSGNTKCIETLVGHTGEVNCVVANEKYLFSCSYDKTIKVWDLSTFKEIKSFEGVHTKYIKTLALSGRYLFSGGNDQIIYVWDTETLSMLFNMQGHEDWVLSLHCTASYLFSTSKDNVIKIWDLSNFSCIDTLKGHWNSVSSCVVKDRYLYSGSEDNSIKVWDLDTLECVYTIPKSHSLGVKCLMVFNNQIISAAFDGSIKVWEWQSK
With B5 the “phosphorylation assay (substrate specificity), 10 min” value [3] was “each of these kinases is specific for their respective substrates” and the “phosphorylation assay (substrate specificity), 10 min” value [2] was “MHCK A cannot phosphorylate eEF-2”.

B6: recombinant C. elegans eEF-2 kinase (translation products of the mixture of Cefk-1 and Cefk-2) (protein)
chain: MTIDTTNESDNSPTNSPGLEASARTFSLNASKMVRITDDYADEVFIEQNDVVIEKPRMDPLHVRKLMETWRKAARRARTNYIDPWDEFNIHEYPVQRAKRYRYSAIRKQWTEDIVDVRLHPDSFARGAMRECYRLKKCSKHGTSQDWSSNYVAKRYICQVDRRVLFDDVRLQMDAKLWAEEYNRYNPPKKIDIVQMCVIEMIDVKGSPLYHLEHFIEGKYIKYNSNSGFVSNAARLTPQAFSHFTFERSGHQMMVVDIQGVGDLYTDPQIHTVVGTDYGDGNLGTRGMALFFHSHRCNDICETMDLSNFELSPPEIEATEVAMEVAAKQKKSCIVPPTVFEARRNRISSECVHVEHGISMDQLRKRKTLNQSSTDLSAKSHNEDCVCPECIPVVEQLCEPCSEDEEDEEEDYPRSEKSGNSQKSRRSRMSISTRSSGDESASRPRKCGFVDLNSLRQRHDSFRSSVGTYSMNSSRQTRDTEKDEFWKVLRKQSVPANILSLQLQQMAANLENDEDVPQVTGHQFSVLGQIHIDLSRYHELGRFVEVDSEHKEMLEGSENDARVPIKYDKQSAIFHLDIARKCGILEAVLTSAHIVLGLPHELLKEVTVDDLFPNGFGEQENGIRADKGQKPCDLEEFGSDLMEIAAEMGDKGAMLYMAHAYETGQHLGPNRRTDYKKSIDWYQRVVGFQEEEELDSDCGKTTFSSFAPLTRHEILAKMAEMYKEGGYGLNQDFERAYGLFNEAAEAAMEAMNGKLANKYYEKAEMCGE
B6 was tested, and the “eEF-2 phosphorylation activity in the presence and absence of Ca2+ and calmodulin” value [1] was “The eEF-2 phosphorylation activity of the recombinant protein is Ca^2+/calmodulin-dependant” and the “eEF-2 kinase activity: phosphorylation of eEF-2 with [gamma-32P]ATP, SDS/PAGE and autoradiography” value [2] was “The translation products of the mixture of Cefk-1 and Cefk-2 are able to phosphorylate eEF-2”.
